The series concerns Escherichia coli TOP10. Kind of series: shrunken log2 fold change of peptide-encoding DNA abundance (4.5 h post-induction vs induction); higher = less antimicrobial activity (less host growth inhibition). To be noted: time post-induction: 4.5 h; library: site-saturation at positions 5, 18, 19, 20.
On to RRIRMRPPRLPRPRPRPYCKPRP, for which the “shrunken log2 fold change” value is -1.02. With RRIRWRPPRLPRPRPRPVFIPRP the figure was -0.22; with RRIRVRPPRLPRPRPRPLMVPRP, -0.443; with RRIRHRPPRLPRPRPRPKHTPRP, -0.104. With RRIRCRPPRLPRPRPRPGEKPRP the figure was 0.0653. Regarding RRIRERPPRLPRPRPRPRYSPRP, the “shrunken log2 fold change” value was -0.182.

With RRIRGRPPRLPRPRPRPFAYPRP, the “shrunken log2 fold change” value was 0.184. With RRIRLRPPRLPRPRPRPHIYPRP the figure was -0.297; with RRIRPRPPRLPRPRPRPPGYPRP, 0.116; with RRIRDRPPRLPRPRPRPGDPPRP, 0.293. For the sequence RRIRCRPPRLPRPRPRPYHIPRP, the “shrunken log2 fold change” value is -0.27. RRIRARPPRLPRPRPRPMLNPRP: the “shrunken log2 fold change” value was -0.167. With RRIRSRPPRLPRPRPRPGKTPRP the figure was -0.112; with RRIRWRPPRLPRPRPRPYDVPRP, -0.0559. Consider RRIRQRPPRLPRPRPRPLHGPRP, for which the “shrunken log2 fold change” value was determined as 0.0407. With RRIRQRPPRLPRPRPRPDDSPRP the figure was -0.139. Regarding RRIRTRPPRLPRPRPRPKWKPRP, the “shrunken log2 fold change” value is -0.0786. Turning to RRIRTRPPRLPRPRPRPVQEPRP, the “shrunken log2 fold change” value was found to be 0.207. In the case of RRIRCRPPRLPRPRPRPESLPRP, the “shrunken log2 fold change” value is -0.11. Take RRIRTRPPRLPRPRPRPMLPPRP: the “shrunken log2 fold change” value was -0.0543. Take RRIRLRPPRLPRPRPRPLYLPRP: the “shrunken log2 fold change” value was -0.837. With RRIRQRPPRLPRPRPRPDHPPRP the figure was -0.0816; with RRIRNRPPRLPRPRPRPNDLPRP, -0.0167. RRIRVRPPRLPRPRPRPTYDPRP: the “shrunken log2 fold change” value was -0.372. In the case of RRIRLRPPRLPRPRPRPPLRPRP, the “shrunken log2 fold change” value came out at 0.386. RRIRHRPPRLPRPRPRPDMFPRP: the “shrunken log2 fold change” value was -0.0749. With RRIRSRPPRLPRPRPRPARCPRP the figure was 0.114; with RRIRNRPPRLPRPRPRPVRNPRP, 0.178; with RRIRFRPPRLPRPRPRPTDIPRP, 0.0284. Regarding RRIRMRPPRLPRPRPRPRMGPRP, the “shrunken log2 fold change” value came to 1.11.

Consider RRIRWRPPRLPRPRPRPRESPRP, for which the “shrunken log2 fold change” value stood at 0.846. On to RRIRHRPPRLPRPRPRPADHPRP, for which the “shrunken log2 fold change” value is 0.134. For RRIRLRPPRLPRPRPRPGLQPRP, the “shrunken log2 fold change” value was -0.166.

For the sequence RRIRVRPPRLPRPRPRPFIYPRP, the “shrunken log2 fold change” value is -0.236. For RRIRMRPPRLPRPRPRPYIKPRP, the “shrunken log2 fold change” value was -0.86. With RRIRRRPPRLPRPRPRPLYKPRP the figure was -0.248; with RRIRFRPPRLPRPRPRPYSGPRP, -0.293. Regarding RRIRIRPPRLPRPRPRPAMGPRP, the “shrunken log2 fold change” value came to 1.17.

For the sequence RRIRMRPPRLPRPRPRPTRLPRP, the “shrunken log2 fold change” value worked out at 1.19. For the sequence RRIRVRPPRLPRPRPRPYPEPRP, the “shrunken log2 fold change” value was determined as 1.13. For the sequence RRIRYRPPRLPRPRPRPCWFPRP, the “shrunken log2 fold change” value was -0.0378. Consider RRIRRRPPRLPRPRPRPQCEPRP, for which the “shrunken log2 fold change” value was 0.153. Consider RRIRGRPPRLPRPRPRPFGDPRP, for which the “shrunken log2 fold change” value came to 0.0154.

RRIRTRPPRLPRPRPRPFVAPRP: the “shrunken log2 fold change” value was -0.0696. For the sequence RRIRFRPPRLPRPRPRPFNRPRP, the “shrunken log2 fold change” value was found to be 0.0118. As to RRIRGRPPRLPRPRPRPPSTPRP, the “shrunken log2 fold change” value amounted to 0.643. Turning to RRIRRRPPRLPRPRPRPWAHPRP, the “shrunken log2 fold change” value turned out to be 0.0718.

As for RRIRFRPPRLPRPRPRPLDDPRP, the “shrunken log2 fold change” value is -0.209. For the sequence RRIRVRPPRLPRPRPRPAAVPRP, the “shrunken log2 fold change” value is 0.114. RRIRCRPPRLPRPRPRPDECPRP: the “shrunken log2 fold change” value was -0.00243.

Regarding RRIRMRPPRLPRPRPRPYWQPRP, the “shrunken log2 fold change” value is -0.312. For RRIRFRPPRLPRPRPRPKIDPRP, the “shrunken log2 fold change” value worked out at 0.00783. With RRIRKRPPRLPRPRPRPLCNPRP the figure was 1.06; with RRIRGRPPRLPRPRPRPWYTPRP, -0.225; with RRIRGRPPRLPRPRPRPHWSPRP, -0.132. For RRIRYRPPRLPRPRPRPNKGPRP, the “shrunken log2 fold change” value is -0.618.

In the case of RRIRPRPPRLPRPRPRPGIAPRP, the “shrunken log2 fold change” value came to 0.218.

RRIRTRPPRLPRPRPRPDDDPRP: the “shrunken log2 fold change” value was -0.00136. With RRIRCRPPRLPRPRPRPETMPRP, the “shrunken log2 fold change” value is -0.0663. For RRIRYRPPRLPRPRPRPPEHPRP, the “shrunken log2 fold change” value is -0.0551. Turning to RRIRYRPPRLPRPRPRPAMFPRP, the “shrunken log2 fold change” value is -0.229. Take RRIRVRPPRLPRPRPRPPAGPRP: the “shrunken log2 fold change” value amounted to 0.522. With RRIRARPPRLPRPRPRPMHWPRP, the “shrunken log2 fold change” value came to 0.548. In the case of RRIRPRPPRLPRPRPRPVPRPRP, the “shrunken log2 fold change” value is 0.531. RRIRVRPPRLPRPRPRPWEIPRP: the “shrunken log2 fold change” value is -0.00992. With RRIRHRPPRLPRPRPRPPIMPRP the figure was -0.285. Consider RRIRDRPPRLPRPRPRPCCGPRP, for which the “shrunken log2 fold change” value stood at 1.13.

RRIRWRPPRLPRPRPRPLISPRP: the “shrunken log2 fold change” value was -0.0451. In the case of RRIRVRPPRLPRPRPRPFPHPRP, the “shrunken log2 fold change” value is -0.366. Take RRIRWRPPRLPRPRPRPRCDPRP: the “shrunken log2 fold change” value is 0.429. For RRIRERPPRLPRPRPRPNIPPRP, the “shrunken log2 fold change” value was -0.396.

Regarding RRIRCRPPRLPRPRPRPDERPRP, the “shrunken log2 fold change” value is -0.149. For RRIRHRPPRLPRPRPRPIMQPRP, the “shrunken log2 fold change” value is -0.228.

RRIRHRPPRLPRPRPRPHREPRP: the “shrunken log2 fold change” value was 0.00911. In the case of RRIRDRPPRLPRPRPRPMCHPRP, the “shrunken log2 fold change” value came out at 0.216. For RRIRVRPPRLPRPRPRPSYPPRP, the “shrunken log2 fold change” value is -0.392. Regarding RRIRFRPPRLPRPRPRPHVNPRP, the “shrunken log2 fold change” value is -0.297.

Turning to RRIRARPPRLPRPRPRPCVGPRP, the “shrunken log2 fold change” value is 2.43. As to RRIRPRPPRLPRPRPRPCHYPRP, the “shrunken log2 fold change” value was -0.146. As to RRIRTRPPRLPRPRPRPLHHPRP, the “shrunken log2 fold change” value is -0.494. With RRIRARPPRLPRPRPRPMTPPRP, the “shrunken log2 fold change” value amounted to 0.913.

Regarding RRIRARPPRLPRPRPRPFDCPRP, the “shrunken log2 fold change” value is -0.0326.

For RRIRWRPPRLPRPRPRPGNEPRP, the “shrunken log2 fold change” value was determined as 0.403. As to RRIRFRPPRLPRPRPRPTALPRP, the “shrunken log2 fold change” value was found to be 0.0145.

In the case of RRIRARPPRLPRPRPRPETTPRP, the “shrunken log2 fold change” value came to 1.61. For the sequence RRIRFRPPRLPRPRPRPIRGPRP, the “shrunken log2 fold change” value is -0.0057. Take RRIRVRPPRLPRPRPRPNPHPRP: the “shrunken log2 fold change” value is -0.185. With RRIRYRPPRLPRPRPRPPIQPRP the figure was -0.589.

Regarding RRIRERPPRLPRPRPRPWRPPRP, the “shrunken log2 fold change” value was 0.0707. As to RRIRHRPPRLPRPRPRPMETPRP, the “shrunken log2 fold change” value is -0.0865. With RRIRFRPPRLPRPRPRPDRLPRP the figure was 0.147. For RRIRDRPPRLPRPRPRPSDFPRP, the “shrunken log2 fold change” value was 0.259.

Take RRIRLRPPRLPRPRPRPLNQPRP: the “shrunken log2 fold change” value was -0.917.

Take RRIRKRPPRLPRPRPRPAEKPRP: the “shrunken log2 fold change” value came out at 0.477. On to RRIRYRPPRLPRPRPRPGMCPRP, for which the “shrunken log2 fold change” value is 0.0154.

RRIRDRPPRLPRPRPRPPLDPRP: the “shrunken log2 fold change” value turned out to be 0.652. As for RRIRCRPPRLPRPRPRPTYVPRP, the “shrunken log2 fold change” value was -0.259. Turning to RRIRPRPPRLPRPRPRPTNDPRP, the “shrunken log2 fold change” value is -0.00332. Consider RRIRDRPPRLPRPRPRPIAEPRP, for which the “shrunken log2 fold change” value came out at 0.195.

As for RRIRFRPPRLPRPRPRPRDMPRP, the “shrunken log2 fold change” value is -0.128.

Turning to RRIRMRPPRLPRPRPRPPGVPRP, the “shrunken log2 fold change” value is 0.919. For RRIRGRPPRLPRPRPRPVLYPRP, the “shrunken log2 fold change” value is 0.069. In the case of RRIRNRPPRLPRPRPRPPRQPRP, the “shrunken log2 fold change” value came to 0.449. With RRIRTRPPRLPRPRPRPHYSPRP, the “shrunken log2 fold change” value was -0.0429. In the case of RRIRWRPPRLPRPRPRPGWAPRP, the “shrunken log2 fold change” value was determined as 0.845.

As to RRIRARPPRLPRPRPRPCMIPRP, the “shrunken log2 fold change” value was -0.261.

In the case of RRIRLRPPRLPRPRPRPISCPRP, the “shrunken log2 fold change” value was -0.0691. With RRIRWRPPRLPRPRPRPCKYPRP the figure was -0.509. With RRIRYRPPRLPRPRPRPLIYPRP, the “shrunken log2 fold change” value is -1.24. On to RRIRARPPRLPRPRPRPLHVPRP, for which the “shrunken log2 fold change” value worked out at 0.0439. With RRIRARPPRLPRPRPRPRDSPRP the figure was 0.499.

Consider RRIRKRPPRLPRPRPRPWCIPRP, for which the “shrunken log2 fold change” value is -0.103. On to RRIRSRPPRLPRPRPRPVDQPRP, for which the “shrunken log2 fold change” value was 0.034. Regarding RRIRHRPPRLPRPRPRPQRCPRP, the “shrunken log2 fold change” value was -0.00202. With RRIRDRPPRLPRPRPRPWCKPRP the figure was -0.171; with RRIRRRPPRLPRPRPRPGREPRP, -0.0226. With RRIRFRPPRLPRPRPRPLYMPRP the figure was -0.921; with RRIRNRPPRLPRPRPRPYVTPRP, -0.553. For the sequence RRIRYRPPRLPRPRPRPEWPPRP, the “shrunken log2 fold change” value was -0.0693. Take RRIRRRPPRLPRPRPRPCLTPRP: the “shrunken log2 fold change” value is 0.0744. Turning to RRIRNRPPRLPRPRPRPGQDPRP, the “shrunken log2 fold change” value was -0.0269.

As for RRIRIRPPRLPRPRPRPVREPRP, the “shrunken log2 fold change” value is 0.201. Regarding RRIRMRPPRLPRPRPRPRDMPRP, the “shrunken log2 fold change” value is 0.316.

Regarding RRIRFRPPRLPRPRPRPNPTPRP, the “shrunken log2 fold change” value turned out to be 0.0233.

Regarding RRIRERPPRLPRPRPRPLLLPRP, the “shrunken log2 fold change” value is -0.305.

Source of the values: the supplement of paper PMC9112550, “Optimization of the antimicrobial peptide Bac7 by deep mutational scanning” (BMC Biology, 2022).
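Also: peptides expressed intracellularly from a pBAD plasmid library in pooled LB shake-flask culture, induced with 0.3% L-arabinose, DNA abundance read by NGS, three biological replicates, DESeq2 with apeglm shrinkage.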
